In patent EP2292266A1 (Novartis Forschungsstiftung, Zweigniederlassung, dated 2011):

Legend:
ErbB2 = target: T1, ErbB2 (human, UniProt P04626 23-1255, tyrosine-phosphorylated (active) receptor after HRG stimulation; sites not resolved in the IP and FRET experiments); assay: ErbB2 immunoprecipitation from SKBr3 and T47D cells
T1 construct: whole, on cells; Endogenous receptor, tested in fixed cells (FRET) and in cell lysates (co-IP); also called HER2

[1] = target: RACK1, receptor of activated C kinase (human, UniProt P63244 1-317); assay: Copine-III IP from SKBr3 lysates, relative quantification by MRM mass spectrometry

B1: Copine III (other)
chain: MAAQCVTKVALNVSCANLLDKDIGSKSDPLCVLFLNTSGQQWYEVERTERIKNCLNPQFSKTFIIDYYFEVVQKLKFGVYDIDNKTIELSDDDFLGECECTLGQIVSSKKLTRPLVMKTGRPAGKGSITISAEEIKDNRVVLFEMEARKLDNKDLFGKSDPYLEFHKQTSDGNWLMVHRTEVVKNNLNPVWRPFKISLNSLCYGDMDKTIKVECYDYDNDGSHDLIGTFQTTMTKLKEASRSSPVEFECINEKKRQKKKSYKNSGVISVKQCEITVECTFLDYIMGGCQLNFTVGVDFTGSNGDPRSPDSLHYISPNGVNEYLTALWSVGLVIQDYDADKMFPAFGFGAQIPPQWQVSHEFPMNFNPSNPYCNGIQGIVEAYRSCLPQIKLYGPTNFSPIINHVARFAAAATQQQTASQYFVLLIITDGVITDLDETRQAIVNASRLPMSIIIVGVGGADFSAMEFLDGDGGSLRSPLGEVAIRDIVQFVPFRQFQNAPKEALAQCVLAEIPQQVVGYFNTYKLLPPKNPATKQQKQ
notes: Endogenous protein of the human breast tumor cell lines T47D and SKBr3, tested in cell lysates (pull-down, IP) or in fixed cells (FRET); also called CPNE3; CPN3
binding result (ErbB2): binds | fold enrichment in Copine-III IPs vs. control IPs [1]: 1.5 fold
